Test results published in article PMC2797608.

Target: methyltransferase domain of human GLP (residues 951-1235) (human)
Assay: not stated; affinity of GLP for H3 peptides; the method of the affinity is not told; the methods describe only a SAHH-coupled kinetic assay of GLP (Km, kcat; peptide 2 uM to 4 mM, 70 uM SAM, room temperature, 25 mM potassium phosphate pH 8)

## H3K9 peptide trimethylated at lysine 4
  decrease in affinity against the peptide not methylated at K4: 43%
